Reference: patent publication US20220363748A1 (AstraZeneca / MedImmune, published 2022)
Residue numbers refer to the chain shown, from its start. Blank lines part the entries; values can stand above or below the binder they belong to.

Experiments:
[1] = target: T1, ST2S-Fc-His6 fusion protein (human, UniProt Q01638 19-328); assay: depletion of remaining reduced IL-33 from the oxIL-33 preparation, in solution, then size exclusion
T1 construct: CD33 signal peptide used for secretion, not part of the protein; also called soluble human ST2S extracellular domain fused to human IgG1 Fc-His6; human ST2 ECD
T1 sequence: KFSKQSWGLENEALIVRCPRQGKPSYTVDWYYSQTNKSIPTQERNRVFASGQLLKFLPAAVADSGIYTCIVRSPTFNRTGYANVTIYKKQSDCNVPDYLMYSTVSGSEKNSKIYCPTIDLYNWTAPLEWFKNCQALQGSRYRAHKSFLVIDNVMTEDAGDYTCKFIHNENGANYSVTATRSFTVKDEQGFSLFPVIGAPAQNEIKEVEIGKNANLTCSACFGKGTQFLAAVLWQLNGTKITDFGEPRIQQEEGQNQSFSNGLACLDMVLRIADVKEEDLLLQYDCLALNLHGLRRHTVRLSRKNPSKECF

[2] = target: T2, EGFR-Fc (R&D Systems #344-ER-050) (UniProt P00533 25-645); assay: ELISA: biotinylated antigen on streptavidin plate, EGFR-Fc with or without untagged RAGE, detection with anti-human IgG HRP
T2 construct: Bought reagent; not shown: Fc part of the bought fusion; detected with anti-human IgG
Procedure: (§1) Plates were washed 3×with 200 μl PBS-T (PBS +1% (v/v) Tween-20) and blocked with 300 μl/well blocking buffer (PBS with 1% BSA (Sigma, A9576)) for 1 hour. […] Plates were washed with 200 μl PBS-T three times. […] Plates were washed 3×with PBS-T and developed with TMB, 100 μl/well (Sigma, T0440). The reaction was quenched with 50 μl/well 0.1 M H2504. Absorbance was read at 450nm on the Cytation Gen5 or similar equipment.

[3] = target: T3, RAGE-Fc (R&D Systems #1145-RG) (UniProt Q15109 24-344); assay: ELISA: biotinylated antigen on streptavidin plate, RAGE-Fc, detection with anti-human IgG HRP
T3 construct: Bought reagent; not shown: Fc part of the bought fusion; detected with anti-human IgG
T3 sequence (Q15109 24-344 limits assumed): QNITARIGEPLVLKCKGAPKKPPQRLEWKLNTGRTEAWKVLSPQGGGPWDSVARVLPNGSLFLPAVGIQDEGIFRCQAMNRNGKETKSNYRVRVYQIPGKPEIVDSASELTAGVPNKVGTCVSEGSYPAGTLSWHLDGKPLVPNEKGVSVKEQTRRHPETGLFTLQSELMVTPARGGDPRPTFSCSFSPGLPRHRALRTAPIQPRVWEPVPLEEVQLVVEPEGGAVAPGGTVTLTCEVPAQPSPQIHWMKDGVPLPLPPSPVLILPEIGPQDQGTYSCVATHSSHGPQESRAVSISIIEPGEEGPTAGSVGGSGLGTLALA
Procedure: as §1

[4] = target: T3, RAGE-Fc (R&D Systems #1145-RG); assay: ELISA: biotinylated oxIL-33 on streptavidin plate, RAGE-Fc 10 µg/mL, anti-human IgG HRP
Procedure: as §1

[5] = target: T2, EGFR-Fc (R&D Systems #344-ER-050); assay: ELISA: biotinylated antigen on streptavidin plate, EGFR-Fc, detection with anti-human IgG HRP
Procedure: as §1

[6] = target: T3, RAGE-Fc (R&D Systems #1145-RG); assay: ELISA: biotinylated antigen on streptavidin plate, RAGE-Fc at 10 µg/mL, detection with anti-human IgG HRP
Procedure: as §1

B1: Untagged IL33-01 (reduced IL-33) (ligand)
chain: SITGISPITEYLASLSTYNDQSITFALEDESYEIYVEDLKKDEKKDKVLLSYYESQHPSNESGDGVDGKMLMVTLSPTKDFWLHANNKEHSVELHKCEKPLPDQAFFVLHNMHSNCVSFECKTDPGVFIGVKDNHLALIKVDSSENLCTENILFKLSET
notes: also called redIL-33; wild type IL-33
binding result [1]: binds

B2: IL-33[C->S] (ligand)
cytokine: MHHHHHHHHHHAAGLNDIFEAQKIEWHEAAIEGRSITGISPITEYLASLSTYNDQSITFALEDESYEIYVEDLKKDEKKDKVLLSYYESQHPSNESGDGVDGKMLMVTLSPTKDFWLHANNKEHSVELHKSEKPLPDQAFFVLHNMHSNSVSFESKTDPGVFIGVKDNHLALIKVDSSENLSTENILFKLSET
modifications: biotinylated at the Avitag with BirA
notes: also called IL33-16
binding result [2]: no binding | binding result [3]: no binding

B3: Avitag_IL-33-01 (oxidised IL-33), biotinylated (ligand)
chain: B2 cytokine with S131C, S150C, S155C, S182C
modifications: biotinylated on the Avitag with BirA; oxidised (disulphide bonded) form of IL-33
notes: also called oxIL-33; oxidised IL-33-01
binding result [4]: binds

Second part, the binder after the results:

binding result [5]: no binding | binding result [6]: binds
B4: HMGB1 (R&D systems 1690-HMB-050), biotinylated (ligand, UniProt P09429 1-215, looked up)
chain: MGKGDPKKPRGKMSSYAFFVQTCREEHKKKHPDASVNFSEFSKKCSERWKTMSAKEKGKFEDMAKADKARYEREMKTYIPPKGETKKKFKDPNAPKRPPSAFFLFCSEYRPKIKGEHPGLSIGDVAKKLGEMWNNTAADDKQPYEKKAAKLKEKYEKDIAAYRAKGKPDAAKKGVVKAEKSKKKKEEEEDEEDEEDEEEEEDEEDEDEEEDDDDE
modifications: biotinylated via free amines (EZ link Sulfo-NHS-LC-Biotin)

binding result [3]: no binding
B5: Biotinylated EGF (Thermo) (ligand, UniProt P01133 971-1023, looked up)
chain: NSDSECPLSHDGYCLHDGVCMYIEALDKYACNCVVGYIGERCQYRDLKWWELR
modifications: biotinylated (bought so)
